Laboratory results: US20260248946A1 (TUOJIE BIOTECH SHANGHAI, published 2026)

T1: human CD79B on the surface of cells (DoHH2 / DOHH-2, WSU-DLCL2) (human, UniProt P40259 29-229)
T1 sequence (looked up): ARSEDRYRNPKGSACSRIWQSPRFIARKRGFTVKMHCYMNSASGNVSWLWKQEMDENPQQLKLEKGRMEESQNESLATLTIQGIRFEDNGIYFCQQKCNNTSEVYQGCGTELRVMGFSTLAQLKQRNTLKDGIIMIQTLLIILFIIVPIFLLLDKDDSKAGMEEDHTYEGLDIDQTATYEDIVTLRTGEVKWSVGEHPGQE

T2: fusion protein of human CD79B extracellular domain (ECD) and His tag (human, UniProt P40259 29-159)
T2 construct: also called human CD79B ECD-His; Human CD79B-His protein
T2 sequence: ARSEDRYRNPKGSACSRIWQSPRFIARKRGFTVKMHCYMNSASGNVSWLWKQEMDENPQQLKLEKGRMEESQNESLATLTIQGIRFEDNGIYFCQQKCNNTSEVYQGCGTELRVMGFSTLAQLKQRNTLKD

T3: human CD79B antigen (coated in the ELISA of the anti-human CD79B mouse antibodies) (human, UniProt P40259 29-159)
T3 construct: extracellular domain; The ELISA protocols only say 'antigen'
T3 sequence (looked up): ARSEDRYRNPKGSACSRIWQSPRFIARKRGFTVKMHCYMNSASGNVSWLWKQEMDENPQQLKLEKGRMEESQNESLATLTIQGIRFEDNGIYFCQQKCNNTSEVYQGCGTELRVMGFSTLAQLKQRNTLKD


How the values were obtained:
[1] = target: T1, human CD79B on the surface of cells …; assay: cell-based or functional assay
[2] = target: T1, human CD79B on the surface of cells …; assay: cell-based or functional assay; remark: listed apart in the source
[3] = target: T1, human CD79B on the surface of cells …; assay: FACS on DoHH2 cells
Description: 3) Assay on anti-human CD79B mouse monoclonal antibodies by FACS The cell suspension of DoHH2 cells was centrifuged, resuspended in PBS containing 0.1% BSA, and counted. 100 μL of antibody diluted in a 1:10 ratio from 100 nM was added, and the cells were incubated at room temperature for 1 h and washed three times. Then Anti-Mouse IgG (Fc specific)-FITC secondary antibody was added, and the cells were incubated at room temperature for 30 min away from the light, washed three times, gently resuspended in PBS containing 0.1% BSA, and loaded on the machine for assay.

[4] = target: T2, fusion protein of human CD79B …; assay: ELISA on Human CD79B-His protein
[5] = target: T2, fusion protein of human CD79B …; assay: SPR, Human CD79B-His protein
[6] = target: T1, human CD79B on the surface of cells …; assay: FACS on DoHH2 cells; remark: listed apart in the source
[7] = target: T3, human CD79B antigen (coated in the …); assay: ELISA on coated human CD79B antigen
Description: 2) Assay on anti-human CD79B mouse monoclonal antibodies by ELISA A 96-well plate was coated with 1 μg/mL antigen at 50 μL/well and incubated in a refrigerator at 4° C. overnight. The next day, the coated antigen plate was washed once (washing solution: 1× PBST). After washing, the plate was blocked with 1% BSA blocking solution prepared in 1× PBST at 37° C. for 1 h. After washing the plate 3 times with 1× PBST, 50 μL of antibody diluted in a 1:10 ratio from 100 nM was added, and the plate was incubated in an incubator at 37° C. for 1 h. After washing the plate 3 times with 1× PBST, 100 μL of goat anti-mouse secondary antibody diluted in a 1:5000 ratio was added, and the plate was incubated in an incubator at 37° C. for 0.5 h. After washing the plate, TMB color development solutions A and B were mixed in a 1:1 ratio for color development. 15 min later, the color development reaction was stopped with 1 N hydrochloric acid. […] value was read at 450 nm on a Spectra Max M5 microplate reader.

Binder | IC50 of in vitro proliferation, DoHH2 cells (MTT, 72 h) [1] | IC50 of in vitro proliferation, WSU-DLCL2 cells (MTT, 72 h) [1] | Endocytosis rate (4 h), DoHH2 cells [2] | EC50 (read off the curve) [3] | further results
ADC-8 (antibody, human IgG1, kappa, V domains shown, MC-VC-PAB-MMAE coupled to cysteines after TCEP reduction; positions not given; MC-VC-PAB-MMAE coupled to cysteines after TCEP reduction; positions not given; mean n=3.59 per antibody) VH: EVQLVESGGGLVQPGGSLRLSCAASGYTFSSYWIEWVRQAPGKGLEWIGEILPGGGDTNYNEIFKGRATFSADTSKNTAYLQMNSLRAEDTAVYYCTRRVPIRLDYWGQGTLVTVSS VL: DIQLTQSPSSLSASVGDRVTITCKASQSVDYEGDSFLNWYQQKPGKAPKLLIYAASNLESGVPSRFSGSGSGTDFTLTISSLQPEDFATYYCQQSNEDPLTFGQGTKVEIKR | 0.0806 µg/mL | 0.117 µg/mL | 76% | – | –
SN8 (antibody, human IgG1, kappa, V domains shown, also called positive control antibody; the antibody in Polivy (polatuzumab vedotin)) VH: EVQLVESGGGLVQPGGSLRLSCAASGYTFSSYWIEWVRQAPGKGLEWIGEILPGGGDTNYNEIFKGRATFSADTSKNTAYLQMNSLRAEDTAVYYCTRRVPIRLDYWGQGTLVTVSS VL: DIQLTQSPSSLSASVGDRVTITCKASQSVDYEGDSFLNWYQQKPGKAPKLLIYAASNLESGVPSRFSGSGSGTDFTLTISSLQPEDFATYYCQQSNEDPLTFGQGTKVEIKR | – | – | – | ~0.09 µg/mL | –
ADC-7 (antibody, human IgG1, kappa, V domains shown, compound D coupled to cysteines after TCEP reduction; positions not given; compound D (exatecan-type linker-drug, Topo I inhibitor) coupled to cysteines after TCEP reduction; positions not given; mean n=5.84 per antibody) VH: EVQLVQSGAEVKKPGSSVKVSCKASGSSFSSYGINWVKQAPGQGLEWIGEIFPRSGNTYYNEKFEGRATLTADKSTSTAYMELRSLRSEDTAVYYCAKGDLGDFDYWGQGTTVTVSS VL: DFVMTQTPLSLPVTPGEPASISCRSSQSIVHSDGNTYFEWYLQKPGQSPKLLIYKVSNRFSGVPDRFSGSGSGTDFTLKISRVEAEDVGVYYCFQGSHVPWTFGGGTKVEIKR | 0.002 µg/mL | 0.0534 µg/mL | 68% | – | –
ADC-2 (antibody, human IgG1, kappa, V domains shown, compound A coupled to cysteines after TCEP reduction; positions not given; compound A (Malei-PEG2-vc-PAB-MMAE) coupled to cysteines after TCEP reduction; positions not given; mean n=3.68 per antibody, Antibody-drug conjugate of hAb015-10; DAR 3.68; also called hAb015-10-cys-Malei-PEG2-vc-PAB-MMAE) VH: EVQLVQSGAEVKKPGSSVKVSCKASGSSFSSYGINWVKQAPGQGLEWIGEIFPRSGNTYYNEKFEGRATLTADKSTSTAYMELRSLRSEDTAVYYCAKGDLGDFDYWGQGTTVTVSS VL: DFVMTQTPLSLPVTPGEPASISCRSSQSIVHSDGNTYFEWYLQKPGQSPKLLIYKVSNRFSGVPDRFSGSGSGTDFTLKISRVEAEDVGVYYCFQGSHVPWTFGGGTKVEIKR | – | – | 66% | – | –
hAb017-10 (antibody, human IgG1, kappa, V domains shown, Humanized antibody; also called hAb017-10 humanized antibody) VH: EVQLVQSGAEVKKPGASVKVSCKASGYTFTTYGINWVKQAPGQGLEWIGEIYPRSGNIYYNEKFKGKATLTADKSTSTAYMELRSLRSDDTAVYYCARGSDYDGDFAYWGQGTLVTVSS VL: DVVMTQTPLSLPVTPGEPASISCRSSQSIVHHDGNTYLEWYLQKPGQSPQLLIYKVSNRFSGVPDRFSGSGSGTDFTLKISRVEAEDVGVYYCFQGSHVPWTFGGGTKVEIKR | – | – | – | – | EC50 [4]: 60 pM; Kd [5]: 4300 pM; EC50 [6]: 550 pM
ADC-4 (antibody, human IgG1, kappa, V domains shown, compound C coupled to cysteines after TCEP reduction; positions not given; compound C (linker-drug) coupled to cysteines after TCEP reduction; positions not given; mean n=4.52 per antibody, Antibody-drug conjugate of hAb015-10; DAR 4.52; also called hAb015-10-cys-C) VH: EVQLVQSGAEVKKPGSSVKVSCKASGSSFSSYGINWVKQAPGQGLEWIGEIFPRSGNTYYNEKFEGRATLTADKSTSTAYMELRSLRSEDTAVYYCAKGDLGDFDYWGQGTTVTVSS VL: DFVMTQTPLSLPVTPGEPASISCRSSQSIVHSDGNTYFEWYLQKPGQSPKLLIYKVSNRFSGVPDRFSGSGSGTDFTLKISRVEAEDVGVYYCFQGSHVPWTFGGGTKVEIKR | – | – | 81% | – | –
ADC-1 (antibody, human IgG1, kappa, V domains shown, compound B coupled to cysteines after TCEP reduction; positions not given; compound B (eribulin-derivative linker-drug) coupled to cysteines after TCEP reduction; positions not given; mean n=3.06 per antibody, Antibody-drug conjugate of hAb015-10; DAR 3.06; also called hAb015-10-cys-B) VH: EVQLVQSGAEVKKPGSSVKVSCKASGSSFSSYGINWVKQAPGQGLEWIGEIFPRSGNTYYNEKFEGRATLTADKSTSTAYMELRSLRSEDTAVYYCAKGDLGDFDYWGQGTTVTVSS VL: DFVMTQTPLSLPVTPGEPASISCRSSQSIVHSDGNTYFEWYLQKPGQSPKLLIYKVSNRFSGVPDRFSGSGSGTDFTLKISRVEAEDVGVYYCFQGSHVPWTFGGGTKVEIKR | – | – | 73% | – | –
ADC-6 (antibody, human IgG1, kappa, V domains shown, compound D coupled to cysteines after TCEP reduction; positions not given; compound D (exatecan-type linker-drug, Topo I inhibitor) coupled to cysteines after TCEP reduction; positions not given; mean n=3.46 per antibody) VH: EVQLVQSGAEVKKPGSSVKVSCKASGSSFSSYGINWVKQAPGQGLEWIGEIFPRSGNTYYNEKFEGRATLTADKSTSTAYMELRSLRSEDTAVYYCAKGDLGDFDYWGQGTTVTVSS VL: DFVMTQTPLSLPVTPGEPASISCRSSQSIVHSDGNTYFEWYLQKPGQSPKLLIYKVSNRFSGVPDRFSGSGSGTDFTLKISRVEAEDVGVYYCFQGSHVPWTFGGGTKVEIKR | 0.0033 µg/mL | 0.0542 µg/mL | 75% | – | –
ADC-5 (antibody, human IgG1, kappa, V domains shown, compound D coupled to cysteines after TCEP reduction; positions not given; compound D (exatecan-type linker-drug, Topo I inhibitor) coupled to cysteines after TCEP reduction; positions not given; mean n=1.81 per antibody, Antibody-drug conjugate of hAb015-10; also called HAB015-10-cys-D, with a DAR value of about 2) VH: EVQLVQSGAEVKKPGSSVKVSCKASGSSFSSYGINWVKQAPGQGLEWIGEIFPRSGNTYYNEKFEGRATLTADKSTSTAYMELRSLRSEDTAVYYCAKGDLGDFDYWGQGTTVTVSS VL: DFVMTQTPLSLPVTPGEPASISCRSSQSIVHSDGNTYFEWYLQKPGQSPKLLIYKVSNRFSGVPDRFSGSGSGTDFTLKISRVEAEDVGVYYCFQGSHVPWTFGGGTKVEIKR | 0.0085 µg/mL | 0.0683 µg/mL | 76% | – | –
ADC-3 (antibody, human IgG1, kappa, V domains shown, MC-vc-PAB-MMAE coupled to cysteines after TCEP reduction; positions not given; MC-vc-PAB-MMAE coupled to cysteines after TCEP reduction; positions not given; mean n=3.09 per antibody, Antibody-drug conjugate of hAb015-10; DAR 3.09; also called hAb015-10-cys-MC-vc-PAB-MMAE) VH: EVQLVQSGAEVKKPGSSVKVSCKASGSSFSSYGINWVKQAPGQGLEWIGEIFPRSGNTYYNEKFEGRATLTADKSTSTAYMELRSLRSEDTAVYYCAKGDLGDFDYWGQGTTVTVSS VL: DFVMTQTPLSLPVTPGEPASISCRSSQSIVHSDGNTYFEWYLQKPGQSPKLLIYKVSNRFSGVPDRFSGSGSGTDFTLKISRVEAEDVGVYYCFQGSHVPWTFGGGTKVEIKR | 0.0033 µg/mL | 0.0059 µg/mL | 70% | – | –
mAb015 (antibody, V domains shown, Mouse monoclonal antibody from hybridoma; also called 83B2G2) VH: QVQLQQSGAELARPGASVKLSCKASGSSFTSYGINWVKQRTGQGLEWIGEIFPRSGNTYYNEKFEGKATLTADKSSSTAYMELRSLTSEDSAVYFCAKGDLGDFDYWGQGTTLTVSS VL: DFLMTQTPLSLPVRLGDQASISCRSSQSIVHSDGNTYFEWYLQKPGQSPKLLIYKVSNRFSGVPDRFSGSGSGTDFTLKISRVEAEDLGVYYCFQGSHVPWTFGGGTKLEIK | – | – | – | ~0.03 µg/mL | EC50 (read off the curve) [7]: 100 to 200 pM
mAb016 (antibody, V domains shown) VH: QVQLQQSGAELARPGASVKLSCKASGYIFTNYGIIWVKQRTGQGLEWIGDIFPGSGNTYYNENFKGKATLTADKSSSTAYMELRSLTSEDSAVYFCSRGELGDFDYWGQGTTLTVSS VL: VVLMTQTPLSLPVSLGDQASISCRSSQNIVHSDGTTYLEWYLQKPGQSPKLLIYKVSNRFSGVPDRFSGSGSGTDFTLKISRVEAEDLGIYYCFQGSHVPWTFGGGTKLEIK | – | – | – | ~0.02 µg/mL | EC50 (read off the curve) [7]: 100 to 200 pM
mAb017 (antibody, V domains shown, Mouse monoclonal antibody from hybridoma; also called 86F11F6) VH: QVQLQQSGAELARPGASVKLSCKASGYTFTTYGINWVKQRTGQGLEWIGEIYPRSGNIYYNEKFKGKATLTADKSSSTAYMELRSLTSEDSAVYFCARGSDYDGDFAYWGQGTLVTVSA VL: DVLMTQTPLSLPVSLGDQASISCRSSQSIVHHDGNTYLEWYLQKPGQSPKLLIYKVSNRFSGVPDRFSGSGSGTDFTLKISRVEAEDLGVYYCFQGSHVPWTFGGGTQLEIK | – | – | – | ~0.02 µg/mL | EC50 (read off the curve) [7]: 100 to 200 pM
